Experiments:
[1] = target: Catcher-AP205 (Catcher of the isopeptide linkage system, flexible linker, bacteriophage AP205 VLP subunit) (bacteriophage AP205); experiment: SDS-PAGE densitometry of the covalent conjugate; catcher-AP205 and gE-Tag mixed at a 1:2 molar ratio, 24 h at 22°C, then dialysed into 50 mM glycine, 25 mM sodium citrate, 0.1% Tween 20, pH 6.2; coupling efficiency by densitometry of reduced SDS-PAGE; isopeptide bond between Tag and Catcher
[2] = target: Catcher-Ferritin (Catcher of the isopeptide linkage system, flexible linker, Ferritin NP subunit); experiment: SDS-PAGE densitometry of the covalent conjugate; catcher-Ferritin and gE-Tag mixed at a 1:6 molar ratio, 24 h at 4°C; uncoupled gE-Tag removed by SEC (Superdex 200 Increase, 20 mM Tris-HCl, 25% sucrose w/v, pH 7.4); coupling efficiency by densitometry of reduced SDS-PAGE; isopeptide bond between Tag and Catcher

Substance: gE-Tag (extracellular domain of VZV glycoprotein E with a C-terminal Tag of the isopeptide linkage system) (from UniProt P09259 31-544)
- conjugation efficiency [1]: > 70%
- conjugation efficiency [2]: > 70%

Reference: PMC11286566
